Data taken from US20160200782A1.
One block for each substance: values may come before it.

Key:
Test in all cases: cell-based or functional assay
[1] = molecular target: NEK2(h) (human) (UniProt P51955)
[2] = molecular target: PDK1(h) (human) (UniProt O15530)
[3] = molecular target: Lyn(h) (human) (UniProt P07948)
[4] = molecular target: WNK3(h) (human) (UniProt Q9BYP7)
[5] = molecular target: EphA3(h) (human) (UniProt P29320)
[6] = molecular target: IRR(h) (human) (UniProt P14616)
[7] = molecular target: NEK6(h) (human) (UniProt Q9HC98)
[8] = molecular target: Ax1(h) (human) (UniProt P30530)
[9] = molecular target: TSSK1(h) (human) (UniProt Q9BXA7)
[10] = molecular target: AMPKa2(h) (human) (UniProt P54646)
[11] = molecular target: CHK2(I157T)(h) (human) (UniProt O96017)
[12] = molecular target: CaMKI(h) (human) (UniProt Q14012)
[13] = molecular target: Pim-3(h) (human) (UniProt Q86V86)
[14] = molecular target: DRAK1(h) (human) (UniProt Q9UEE5)
[15] = molecular target: CHK2(h) (human) (UniProt O96017)
[16] = molecular target: MST1(h) (human) (UniProt Q13043)
[17] = molecular target: NLK(h) (human) (UniProt Q9UBE8)
[18] = molecular target: p70S6K(h) (human) (UniProt P23443)
[19] = molecular target: Pim-2(h) (human) (UniProt Q9P1W9)
[20] = molecular target: Flt3(h) (human) (UniProt P36888)
[21] = molecular target: Src(1-530)(h) (human) (UniProt P12931)
[22] = molecular target: AMPKa1(h) (human) (UniProt Q13131)
[23] = molecular target: IGF-1R(h), activated (human) (UniProt P08069)
[24] = molecular target: MSK2(h) (human) (UniProt O75676)
[25] = molecular target: Snk(h) (human) (UniProt Q9NYY3)
[26] = molecular target: c-RAF(h) (human) (UniProt P04049)
[27] = molecular target: PKCγ(h) (human) (UniProt P05129)
[28] = molecular target: PRK2(h) (human) (UniProt Q16513)
[29] = molecular target: Met(D1246H)(h) (human) (UniProt P08581)
[30] = molecular target: MLCK(h) (human)
[31] = molecular target: SIK(h) (human) (UniProt P57059)
[32] = molecular target: MARK1(h) (human) (UniProt Q9P0L2)
[33] = molecular target: Rsk3(h) (human) (UniProt Q15349)
[34] = molecular target: MAPKAP-K3(h) (human) (UniProt Q16644)
[35] = molecular target: Mnk2(h) (human) (UniProt Q9HBH9)
[36] = molecular target: MINK(h) (human) (UniProt Q8N4C8)
[37] = molecular target: Met(h) (human) (UniProt P08581)
[38] = molecular target: MEK1(h) (human) (UniProt Q02750)
[39] = molecular target: Fes(h) (human) (UniProt P07332)
[40] = molecular target: Ab1(H396P)(h) (human) (UniProt P00519)
[41] = molecular target: PAK5(h) (human) (UniProt Q9P286)
[42] = molecular target: EphB4(h) (human) (UniProt P54760)
[43] = molecular target: DYRK2(h) (human) (UniProt Q92630)
[44] = molecular target: EphA8(h) (human) (UniProt P29322)
[45] = molecular target: SGK(h) (human) (UniProt O00141)
[46] = molecular target: PASK(h) (human) (UniProt Q96RG2)
[47] = molecular target: Ret(V804L)(h) (human) (UniProt P07949)
[48] = molecular target: Ret(V804M)(h) (human) (UniProt P07949)
[49] = molecular target: CaMKIIδ(h) (human) (UniProt Q13557)
[50] = molecular target: DDR2(h) (human) (UniProt Q16832)
[51] = molecular target: Aurora-B(h) (human) (UniProt Q96GD4)
[52] = molecular target: CDK6/cyclinD3(h) (human) (UniProt Q00534)
[53] = molecular target: ROCK-II(h) (human) (UniProt O75116)
[54] = molecular target: cKit(D816H)(h) (human) (UniProt P10721)
[55] = molecular target: CaMKIIγ(h) (human) (UniProt Q13555)
[56] = molecular target: Ab1(h) (human) (UniProt P00519)

CaMKIIγ(h) (human), sequence (Q13555 whole entry): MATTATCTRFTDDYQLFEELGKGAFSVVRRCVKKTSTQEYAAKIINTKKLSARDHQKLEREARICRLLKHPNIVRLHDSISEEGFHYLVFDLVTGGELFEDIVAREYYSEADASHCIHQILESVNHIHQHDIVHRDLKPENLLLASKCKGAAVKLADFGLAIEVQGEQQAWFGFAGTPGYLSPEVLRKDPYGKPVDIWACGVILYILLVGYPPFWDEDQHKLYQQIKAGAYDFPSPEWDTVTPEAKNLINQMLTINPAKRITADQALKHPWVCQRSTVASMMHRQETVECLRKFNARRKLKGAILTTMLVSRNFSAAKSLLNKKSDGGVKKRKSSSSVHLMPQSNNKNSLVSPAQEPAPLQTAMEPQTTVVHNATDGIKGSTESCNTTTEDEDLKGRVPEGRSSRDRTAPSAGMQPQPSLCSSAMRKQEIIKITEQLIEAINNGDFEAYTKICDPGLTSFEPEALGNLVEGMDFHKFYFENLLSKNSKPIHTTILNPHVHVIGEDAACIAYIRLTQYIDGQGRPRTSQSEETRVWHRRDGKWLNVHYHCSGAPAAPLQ
PAK5(h) (human), sequence (Q9P286 whole entry): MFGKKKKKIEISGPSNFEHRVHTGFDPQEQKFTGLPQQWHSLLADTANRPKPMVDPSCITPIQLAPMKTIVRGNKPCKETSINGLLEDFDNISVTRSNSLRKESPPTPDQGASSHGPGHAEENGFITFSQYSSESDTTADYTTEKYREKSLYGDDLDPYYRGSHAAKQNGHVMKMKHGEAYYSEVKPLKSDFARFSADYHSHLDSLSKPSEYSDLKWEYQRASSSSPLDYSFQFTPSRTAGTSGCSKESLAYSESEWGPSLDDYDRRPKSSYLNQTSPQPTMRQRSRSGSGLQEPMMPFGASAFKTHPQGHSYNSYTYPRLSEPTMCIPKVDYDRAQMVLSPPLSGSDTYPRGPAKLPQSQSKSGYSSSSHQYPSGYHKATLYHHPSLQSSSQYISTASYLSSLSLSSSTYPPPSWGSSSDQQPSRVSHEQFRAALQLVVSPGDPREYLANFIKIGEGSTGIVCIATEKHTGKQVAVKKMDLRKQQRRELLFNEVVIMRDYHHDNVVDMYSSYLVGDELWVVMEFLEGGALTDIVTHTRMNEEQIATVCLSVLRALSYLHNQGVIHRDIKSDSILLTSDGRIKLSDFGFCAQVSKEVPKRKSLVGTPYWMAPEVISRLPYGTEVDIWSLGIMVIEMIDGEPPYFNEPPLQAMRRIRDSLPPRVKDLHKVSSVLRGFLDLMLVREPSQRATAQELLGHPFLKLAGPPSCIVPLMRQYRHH
DDR2(h) (human), sequence (Q16832 422-855 limits assumed): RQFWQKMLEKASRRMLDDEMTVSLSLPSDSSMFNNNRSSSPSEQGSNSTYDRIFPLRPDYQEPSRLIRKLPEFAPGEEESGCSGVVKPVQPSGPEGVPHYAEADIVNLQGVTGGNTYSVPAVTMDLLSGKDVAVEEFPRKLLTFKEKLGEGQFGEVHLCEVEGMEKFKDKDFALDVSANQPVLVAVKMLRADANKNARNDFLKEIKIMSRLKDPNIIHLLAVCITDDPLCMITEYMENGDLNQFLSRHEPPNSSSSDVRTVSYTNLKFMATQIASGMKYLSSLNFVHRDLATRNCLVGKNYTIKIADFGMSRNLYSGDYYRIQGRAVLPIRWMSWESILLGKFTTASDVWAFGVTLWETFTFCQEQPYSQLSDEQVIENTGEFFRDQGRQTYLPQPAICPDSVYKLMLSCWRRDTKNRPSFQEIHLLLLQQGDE
DRAK1(h) (human), sequence (Q9UEE5 whole entry): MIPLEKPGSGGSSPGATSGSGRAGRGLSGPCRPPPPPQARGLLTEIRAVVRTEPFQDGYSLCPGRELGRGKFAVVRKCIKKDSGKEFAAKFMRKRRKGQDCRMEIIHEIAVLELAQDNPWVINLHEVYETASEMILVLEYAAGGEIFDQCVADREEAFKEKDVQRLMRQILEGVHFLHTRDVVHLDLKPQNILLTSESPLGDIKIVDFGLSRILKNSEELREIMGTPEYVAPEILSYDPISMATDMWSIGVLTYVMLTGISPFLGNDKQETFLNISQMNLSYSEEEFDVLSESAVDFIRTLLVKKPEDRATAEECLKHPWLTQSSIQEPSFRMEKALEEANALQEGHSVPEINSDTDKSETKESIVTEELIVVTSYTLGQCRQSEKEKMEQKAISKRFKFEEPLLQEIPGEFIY
IGF-1R(h), activated (human), sequence (P08069 959-1367 limits assumed): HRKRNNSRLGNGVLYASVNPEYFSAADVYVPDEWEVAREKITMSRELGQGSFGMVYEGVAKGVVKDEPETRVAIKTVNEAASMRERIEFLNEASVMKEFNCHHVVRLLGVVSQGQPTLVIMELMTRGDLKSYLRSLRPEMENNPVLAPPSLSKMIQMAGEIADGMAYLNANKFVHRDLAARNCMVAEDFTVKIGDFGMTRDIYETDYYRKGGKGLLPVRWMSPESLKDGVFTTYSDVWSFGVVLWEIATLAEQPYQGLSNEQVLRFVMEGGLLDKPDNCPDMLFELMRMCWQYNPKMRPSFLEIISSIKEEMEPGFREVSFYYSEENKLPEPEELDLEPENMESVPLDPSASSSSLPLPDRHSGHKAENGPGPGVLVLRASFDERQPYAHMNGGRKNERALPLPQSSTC
CDK6/cyclinD3(h) (human), sequence (Q00534 whole entry, chain 1 of 2): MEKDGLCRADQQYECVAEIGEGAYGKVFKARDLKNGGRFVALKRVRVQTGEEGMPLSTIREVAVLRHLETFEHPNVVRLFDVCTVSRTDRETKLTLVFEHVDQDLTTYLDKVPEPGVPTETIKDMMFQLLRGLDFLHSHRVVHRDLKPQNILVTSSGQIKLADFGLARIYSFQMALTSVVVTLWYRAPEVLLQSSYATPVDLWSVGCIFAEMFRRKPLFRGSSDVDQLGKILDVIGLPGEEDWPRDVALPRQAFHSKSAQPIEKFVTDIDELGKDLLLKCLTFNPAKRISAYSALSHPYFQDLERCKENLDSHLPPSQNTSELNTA
CDK6/cyclinD3(h) (human), sequence (P30281 whole entry, chain 2 of 2, further chain): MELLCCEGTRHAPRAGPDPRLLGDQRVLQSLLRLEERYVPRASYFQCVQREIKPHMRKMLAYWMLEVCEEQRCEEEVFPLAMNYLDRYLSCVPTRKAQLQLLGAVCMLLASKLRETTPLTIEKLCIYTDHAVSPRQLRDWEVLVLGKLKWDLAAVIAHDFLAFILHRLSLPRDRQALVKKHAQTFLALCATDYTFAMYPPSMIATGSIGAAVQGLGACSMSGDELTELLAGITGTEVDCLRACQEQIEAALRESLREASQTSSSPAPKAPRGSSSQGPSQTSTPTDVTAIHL
EphB4(h) (human), sequence (P54760 561-987 limits assumed): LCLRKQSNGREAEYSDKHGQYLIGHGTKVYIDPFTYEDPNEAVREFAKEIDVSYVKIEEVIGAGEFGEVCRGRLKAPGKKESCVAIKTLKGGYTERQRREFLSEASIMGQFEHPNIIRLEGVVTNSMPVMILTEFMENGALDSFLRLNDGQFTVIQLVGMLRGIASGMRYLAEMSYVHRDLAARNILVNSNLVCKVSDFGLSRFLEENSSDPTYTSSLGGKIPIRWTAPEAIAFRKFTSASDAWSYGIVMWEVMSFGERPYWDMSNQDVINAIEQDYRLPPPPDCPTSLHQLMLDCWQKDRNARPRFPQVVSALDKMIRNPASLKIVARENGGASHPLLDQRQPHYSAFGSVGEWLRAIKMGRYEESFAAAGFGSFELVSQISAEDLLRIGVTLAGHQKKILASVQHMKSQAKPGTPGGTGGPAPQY
WNK3(h) (human), sequence (Q9BYP7 1-434 limits assumed): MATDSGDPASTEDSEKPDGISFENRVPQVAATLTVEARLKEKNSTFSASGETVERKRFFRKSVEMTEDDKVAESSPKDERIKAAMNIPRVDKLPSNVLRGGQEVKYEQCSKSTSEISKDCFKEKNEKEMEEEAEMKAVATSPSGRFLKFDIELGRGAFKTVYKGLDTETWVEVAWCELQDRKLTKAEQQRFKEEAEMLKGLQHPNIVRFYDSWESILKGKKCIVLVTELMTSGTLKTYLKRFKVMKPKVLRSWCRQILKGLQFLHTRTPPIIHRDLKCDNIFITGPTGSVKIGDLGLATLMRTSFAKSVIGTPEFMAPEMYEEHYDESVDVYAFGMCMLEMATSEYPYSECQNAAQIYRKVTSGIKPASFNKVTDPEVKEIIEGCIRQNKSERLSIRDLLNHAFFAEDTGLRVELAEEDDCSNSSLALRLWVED
Fes(h) (human), sequence (P07332 whole entry): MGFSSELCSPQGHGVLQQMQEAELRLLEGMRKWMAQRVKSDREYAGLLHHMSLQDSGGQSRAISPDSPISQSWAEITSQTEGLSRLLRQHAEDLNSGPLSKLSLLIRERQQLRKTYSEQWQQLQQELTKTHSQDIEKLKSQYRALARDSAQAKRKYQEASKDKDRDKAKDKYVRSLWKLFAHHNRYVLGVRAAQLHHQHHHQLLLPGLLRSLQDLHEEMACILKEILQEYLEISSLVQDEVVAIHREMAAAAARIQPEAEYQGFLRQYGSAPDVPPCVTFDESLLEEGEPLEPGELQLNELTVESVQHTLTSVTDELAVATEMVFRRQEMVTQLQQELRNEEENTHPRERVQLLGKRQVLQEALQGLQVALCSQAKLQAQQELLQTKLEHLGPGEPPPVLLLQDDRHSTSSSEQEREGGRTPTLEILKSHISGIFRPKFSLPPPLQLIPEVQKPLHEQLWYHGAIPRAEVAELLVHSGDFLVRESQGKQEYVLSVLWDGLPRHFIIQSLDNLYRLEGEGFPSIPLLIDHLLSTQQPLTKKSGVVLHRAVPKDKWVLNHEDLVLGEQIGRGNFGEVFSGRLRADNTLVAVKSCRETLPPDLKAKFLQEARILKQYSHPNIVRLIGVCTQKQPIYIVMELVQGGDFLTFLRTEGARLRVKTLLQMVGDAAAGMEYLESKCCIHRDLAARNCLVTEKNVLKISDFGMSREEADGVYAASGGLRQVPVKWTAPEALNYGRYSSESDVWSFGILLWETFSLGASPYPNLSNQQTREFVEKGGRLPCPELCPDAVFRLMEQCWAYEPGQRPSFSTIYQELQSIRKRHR

Substance: MMI-0100 (peptide)
% activity [1]: 102% | % activity [2]: 144% | % activity [3]: 113% | % activity [4]: 100% | % activity [5]: 107% | % activity [6]: 85% | % activity [7]: 109% | % activity [8]: 81% | % activity [9]: 99% | % activity [10]: 121% | % activity [11]: 97% | % activity [12]: 13% | % activity [13]: 98% | % activity [14]: 47% | % activity [15]: 104% | % activity [16]: 85% | % activity [17]: 100% | % activity [18]: 89% | % activity [19]: 117% | % activity [20]: 104% | % activity [21]: 95% | % activity [22]: 107% | % activity [23]: 126% | % activity [24]: 105% | % activity [25]: 94% | % activity [26]: 97% | % activity [27]: 94% | % activity [28]: 72% | % activity [29]: 99% | % activity [30]: 85% | % activity [31]: 113% | % activity [32]: 109% | % activity [33]: 76% | % activity [34]: 27% | % activity [35]: 94% | % activity [36]: 96% | % activity [37]: 104% | % activity [38]: 86% | % activity [39]: 44% | % activity [40]: 130% | % activity [41]: 97% | % activity [42]: 62% | % activity [43]: 99% | % activity [44]: 181% | % activity [45]: 128% | % activity [46]: 81% | % activity [47]: 113% | % activity [48]: 92% | % activity [49]: 89% | % activity [50]: 105% | % activity [51]: 94% | % activity [52]: 103% | % activity [53]: 102% | % activity [54]: 79% | % activity [55]: 106% | % activity [56]: 136%

Substance: MMI-0200 (peptide)
% activity [1]: 97% | % activity [2]: 143% | % activity [3]: 98% | % activity [4]: 97% | % activity [5]: 117% | % activity [6]: 69% | % activity [7]: 98% | % activity [8]: 99% | % activity [9]: 98% | % activity [10]: 88% | % activity [11]: 85% | % activity [12]: 21% | % activity [13]: 94% | % activity [14]: 34% | % activity [15]: 105% | % activity [16]: 72% | % activity [17]: 106% | % activity [18]: 84% | % activity [19]: 74% | % activity [20]: 99% | % activity [21]: 75% | % activity [22]: 108% | % activity [23]: 94% | % activity [24]: 88% | % activity [25]: 109% | % activity [26]: 115% | % activity [27]: 101% | % activity [28]: 74% | % activity [29]: 139% | % activity [30]: 103% | % activity [31]: 102% | % activity [32]: 102% | % activity [33]: 109% | % activity [34]: 39% | % activity [35]: 106% | % activity [36]: 103% | % activity [37]: 71% | % activity [38]: 116% | % activity [39]: 74% | % activity [40]: 121% | % activity [41]: 100% | % activity [42]: 131% | % activity [43]: 142% | % activity [44]: 133% | % activity [45]: 115% | % activity [46]: 60% | % activity [47]: 100% | % activity [48]: 105% | % activity [49]: 2% | % activity [50]: 104% | % activity [51]: 166% | % activity [52]: 100% | % activity [53]: 85% | % activity [54]: 106% | % activity [55]: 94% | % activity [56]: 107%

% activity [1]: 0% | % activity [2]: 178% | % activity [3]: 31% | % activity [4]: 9% | % activity [5]: 33% | % activity [6]: 10% | % activity [7]: 49% | % activity [8]: 12% | % activity [9]: 46% | % activity [10]: 9% | % activity [11]: 3% | % activity [12]: -1% | % activity [13]: 37% | % activity [14]: 8% | % activity [15]: 13% | % activity [16]: 3% | % activity [17]: 19% | % activity [18]: 3% | % activity [19]: 46% | % activity [20]: 17% | % activity [21]: 21% | % activity [22]: 35% | % activity [23]: 45% | % activity [24]: 14% | % activity [25]: 122% | % activity [26]: 19% | % activity [27]: 6% | % activity [28]: 7% | % activity [29]: 150% | % activity [30]: 0% | % activity [31]: 40% | % activity [32]: 110% | % activity [33]: 23% | % activity [34]: 9% | % activity [35]: 6% | % activity [36]: 5% | % activity [37]: 27% | % activity [38]: 21% | % activity [39]: 23% | % activity [40]: 51% | % activity [41]: 125% | % activity [42]: 38% | % activity [43]: 127% | % activity [44]: 337% | % activity [45]: 2% | % activity [46]: 9% | % activity [47]: 20% | % activity [48]: 36% | % activity [49]: 1% | % activity [50]: 79% | % activity [51]: 5% | % activity [52]: 23% | % activity [53]: 2% | % activity [54]: 194% | % activity [55]: 3% | % activity [56]: 16%
Substance: MMI-0500 (peptide)
